From patent US5543264

Columns and labels:
[1] = biological target: purified recombinant Ad2 proteinase (rEP) (human adenovirus type 2)
[2] = biological target: (Leu-Arg-Gly-Gly-NH)2-rhodamine
[3] = biological target: purified recombinant Ad2 proteinase (rEP) (human adenovirus type 2); remark: listed apart in the source

Molecule: polylysine
- stimulation of the rate of substrate hydrolysis by rEP with pVIc peptide [1]: < 1 fold

Molecule: polyaspartic acid
- stimulation of the rate of substrate hydrolysis by rEP with pVIc peptide [1]: 5 fold

Molecule: polyglutamic acid
- stimulation of the rate of substrate hydrolysis by rEP with pVIc peptide [1]: 8.9 fold

Molecule: purified recombinant Ad2 proteinase (rEP) (enzyme)
- rate of substrate hydrolysis, fluorescence assay (pmol substrate min^-1) [2]: 25.6

Molecule: GVQSLKRRRCF [Ad2 pVI-c peptide cofactor (11-amino acid carboxy terminus of pVI)]
- activation of rEP, rate of hydrolysis of (Leu-Arg-Gly-Gly-NH)2-rhodamine [3]: 2.76 pmol/min
